In publication PMC8092592:

Columns and labels:
[1] = target: protein origami tetrahedron TET12SN; test: ITC; nanobody titrated into the CC peptide dimer, the origami protein or a preformed nanobody-target complex; conditions in SI Appendix
[2] = substrate: CC protein origami tetrahedron TET12SN; test: ITC; nanobody in the syringe titrated into the cell with TET12SN or a tetrahedron variant (2-5 µM), CC peptide dimer (5-10 µM) or a complex preformed by a first titration; MicroCal VP-ITC, 25 °C; 20 mM sodium phosphate pH 7.0, 150 mM NaCl; independent binding sites model (SEDPHAT), errors by Monte-Carlo
[3] = target: preformed Nb28_2-TET12SN complex (llama); test: as above
[4] = target: preformed Nb28_2-TET12SN(22CC) complex (llama); test: as above
[5] = target: preformed Nb28_(2)-TET12SN complex (llama); test: ITC; nanobody titrated into the CC peptide dimer, the origami protein or a preformed nanobody-target complex; conditions in SI Appendix
[6] = substrate: CC protein origami tetrahedron TET12SN; test: ITC; titrations at 18, 25 and 32 °C fitted globally (independent binding sites, temperature-independent heat capacity); parameters reported at 25 °C; 20 mM sodium phosphate pH 7.0, 150 mM NaCl
[7] = substrate: CC protein origami tetrahedron variant TET12SN(22CC); test: ITC; nanobody in the syringe titrated into the cell with TET12SN or a tetrahedron variant (2-5 µM), CC peptide dimer (5-10 µM) or a complex preformed by a first titration; MicroCal VP-ITC, 25 °C; 20 mM sodium phosphate pH 7.0, 150 mM NaCl; independent binding sites model (SEDPHAT), errors by Monte-Carlo; details: for stoichiometry N: scale: nanobody per TET12SN(22CC)
[8] = target: preformed Nb30_2-TET12SN complex (llama); test: as above
[9] = target: preformed Nb30_(2)-TET12SN complex (llama); test: ITC; nanobody titrated into the CC peptide dimer, the origami protein or a preformed nanobody-target complex; conditions in SI Appendix
[10] = target: preformed Nb30_2-TET12SN complex (llama); test: ITC; titrations at 18, 25 and 32 °C fitted globally (independent binding sites, temperature-independent heat capacity); parameters reported at 25 °C; 20 mM sodium phosphate pH 7.0, 150 mM NaCl

B1: nanobody Nb26 (VHH)
VHH: QVQLQESGGGLVQAGDSLRLSCAASGRTFSTYPMGWFRQAPGKEREFVAASSSRAYYADSVKGRFTISRNNAKNTVYLQMNSLKPEDTAVYYCVADSSPYYRRYDAAQDYDYWGQGTQVTVSS
Kd [1]: 1.8 nM | stoichiometry N (nanobody per TET12SN (cell:syringe)) [2]: 2

B2: nanobody Nb39 (VHH)
VHH: QVQLQESGGGLVQAGGSLRLSCAASGSIFSINVMGWYRQAPGKQRELLASITSRGSTNYADSVKDRFTISRDNAKNTVYLQINSLKPEDTAVYYCNSRGWTTTRGDYDYWGQGTQVTVSS
KD, high-affinity site [1]: 27 nM | KD, second binding site [1]: 2000 nM | stoichiometry N (nanobody per TET12SN (cell:syringe)) [2]: 2

B3: nanobody Nb30 (VHH)
VHH: QVQLQESGGGLVQPGGSLRLSCAASGSIFSDNDMGWYRQPPGKQREWVATITYDHVTWYADSVKGRFAISRDNAKNTVYLQMNDLKPEDTAVYYCNAVPGRRGSWGQGTQVTVSS
stoichiometry N (nanobody per complex (cell:syringe)) [3]: 2 | Kd [4]: 24 nM | stoichiometry N (nanobody per complex (cell:syringe)) [4]: 2 | Kd [5]: 26 nM | Kd [1]: 350 nM | Kd [6]: 160 nM | stoichiometry N (nanobody per TET12SN (cell:syringe)) [6]: 2 | stoichiometry N (nanobody per TET12SN (cell:syringe)) [2]: 2 | Kd [7]: 270 nM | stoichiometry N [7]: 2

B4: nanobody Nb28 (VHH)
VHH: QVQLQESGGGLVQPGGSLRLSCAAPGFRLDNYVIGWFRQAPGKEREGVSCISSSAGSTYYADSVKGRFTISRDNAKNTVYLQMNSLKPEDTAVYYCATACYSSYVTYWGQGTQVTVSS
Kd [8]: 2.3 nM | stoichiometry N (nanobody per complex (cell:syringe)) [8]: 2 | Kd [9]: 2 nM | Kd [1]: 39 nM | Kd [6]: 19 nM | stoichiometry N (nanobody per TET12SN (cell:syringe)) [6]: 2 | stoichiometry N (nanobody per TET12SN (cell:syringe)) [2]: 2 | Kd [7]: 27 nM | stoichiometry N [7]: 2 | Kd [10]: 1.6 nM | stoichiometry N (nanobody per complex (cell:syringe)) [10]: 2

B5: nanobody Nb34 (VHH)
VHH: QVQLQESGGGLVQPGGSLRLSCAASQFTFSSDWMYWVRQAPGKGLEWVSSISPGGAATAYAASVKGRFTISRDNAKNTLYLQMNSLKSEDTAVYYCSKTRAGTGRGQGTQVTVSS
Kd [1]: 21000 nM | stoichiometry N (nanobody per TET12SN (cell:syringe)) [2]: 1

B6: nanobody Nb49 (VHH)
VHH: QVQLQESGGGLVQPGGSLRLSCIASGRTFNPYGMGWFRQVPGKERTFVSGITWIGGTTYYVNSVKGRFTISRDRAKNTVYLQMNSLKPEDTAVYYCAADKDNTGYNYWGQGTQVTVSS
Kd [1]: 160 nM | stoichiometry N (nanobody per TET12SN (cell:syringe)) [2]: 2
